Data on 3 molecules can be found in patent US20020064869A1 (published 2002).

Assay [1] concerns the target Fas on TIL1200 cells (human) (UniProt P25445). Kind of assay: cell-based or functional assay.
The target of assay [2] is T1, TR2 on the surface of human cells (MDA-MB-231, HT-29, PBL T cells) (human, UniProt Q92956 39-283).
T1 sequence (looked up): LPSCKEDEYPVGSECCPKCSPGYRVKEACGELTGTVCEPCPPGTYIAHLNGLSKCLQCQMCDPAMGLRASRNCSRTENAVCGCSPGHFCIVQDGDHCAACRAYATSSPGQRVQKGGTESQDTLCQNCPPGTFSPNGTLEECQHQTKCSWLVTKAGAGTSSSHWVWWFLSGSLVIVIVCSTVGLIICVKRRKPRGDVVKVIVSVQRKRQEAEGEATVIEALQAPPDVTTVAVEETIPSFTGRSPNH
In words: cell-based or functional assay.

Assay [3] has as its target LTβR on the surface of human cancer cells (MDA-MB-231, HT-29) (human, UniProt P36941 31-435). In words: cell-based or functional assay.
The target in assay [4] is T2, human LTβR-Fc fusion protein (extracellular domain of lymphotoxin-β receptor fused to IgG1 Fc) (human, UniProt P36941 31-227).
T2 construct: extracellular domain; Made in baculovirus-infected Sf21 cells; also called sLTβR-Fc; lymphotoxin-β receptor-Fc fusion protein; not shown: IgG1 Fc from vector pUC19-IgG1-Fc; hybridomas were counter-screened on human IgG1
T2 sequence (P36941 31-227 limits assumed): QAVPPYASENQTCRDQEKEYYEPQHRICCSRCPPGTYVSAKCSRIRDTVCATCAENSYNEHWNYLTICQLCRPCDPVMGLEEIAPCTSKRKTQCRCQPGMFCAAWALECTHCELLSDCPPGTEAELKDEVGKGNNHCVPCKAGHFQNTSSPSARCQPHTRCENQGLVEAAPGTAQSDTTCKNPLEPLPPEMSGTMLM
Kind of assay: BIAcore, LTβR-Fc immobilized, CHO conditioned media. (Surface plasmon resonance follows binding to a sensor surface in real time, without labels.)

Sequence of Fas on TIL1200 cells (human) (P25445 26-335): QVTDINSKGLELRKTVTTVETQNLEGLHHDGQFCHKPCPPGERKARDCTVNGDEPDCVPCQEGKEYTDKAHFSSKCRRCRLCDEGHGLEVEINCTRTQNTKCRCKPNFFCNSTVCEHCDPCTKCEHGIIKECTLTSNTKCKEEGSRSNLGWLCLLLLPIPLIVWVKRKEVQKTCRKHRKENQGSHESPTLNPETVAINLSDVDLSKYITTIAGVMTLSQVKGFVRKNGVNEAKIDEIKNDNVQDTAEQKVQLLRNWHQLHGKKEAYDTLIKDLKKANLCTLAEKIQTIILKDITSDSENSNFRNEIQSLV
Sequence of LTβR on the surface of human cancer cells (MDA-MB-231, HT-29) (P36941 31-435): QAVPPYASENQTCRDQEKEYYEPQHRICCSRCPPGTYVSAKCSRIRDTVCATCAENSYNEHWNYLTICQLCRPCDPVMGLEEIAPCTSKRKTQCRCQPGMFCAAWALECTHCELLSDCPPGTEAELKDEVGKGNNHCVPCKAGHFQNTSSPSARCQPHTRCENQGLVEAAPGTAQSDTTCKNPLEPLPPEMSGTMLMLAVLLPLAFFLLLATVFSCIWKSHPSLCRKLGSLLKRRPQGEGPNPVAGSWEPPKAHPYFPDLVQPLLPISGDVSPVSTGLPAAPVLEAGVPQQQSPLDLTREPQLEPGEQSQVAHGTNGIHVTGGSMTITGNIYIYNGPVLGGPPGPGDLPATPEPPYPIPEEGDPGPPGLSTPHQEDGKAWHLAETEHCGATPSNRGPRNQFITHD

In the case of “apoptosis inducing anti-Fas Mab CH-11 (antibody)”, in assay [1], the apoptosis of TIL1200 cells worked out at 90%.

B1: recombinant soluble form of AIM II protein (sAIM II), Flag-tagged, amino acids 74-240 of AIM II (ligand, not shown: small tags and cut ends)
chain: DGPAGSWEQLIQERRSHEVNPAAHLTGANSSLTGSGGPLLWETQLGLAFLRGLSYHDGALVVTKAGYYYIYSKVQLGGVGCPLGLASTITHGLYKRTPRYPEELELLVSQQSPCGRATSSSRVWWDSSFLGGVVHLEAGEEVVVRVLDERLVRLRDGTRSYFGAFMV
Consider B1, for which the “IC50 of cytotoxic effect on HT-29 cells in the presence of 10 u/ml IFNγ” value in assay [2] and in assay [3] was less than 1 ng/mL each time.

B2: ck-beta8/AIM II fusion protein, extracellular region of AIM II (amino acids 60-240), from CHO 11 conditioned media (ligand)
chain: SQAGSQLHWRLGEMVTRLPDGPAGSWEQLIQERRSHEVNPAAHLTGANSSLTGSGGPLLWETQLGLAFLRGLSYHDGALVVTKAGYYYIYSKVQLGGVGCPLGLASTITHGLYKRTPRYPEELELLVSQQSPCGRATSSSRVWWDSSFLGGVVHLEAGEEVVVRVLDERLVRLRDGTRSYFGAFMV
notes: Two N-termini were found (40% each): SQAGS... and GSQLH; the second species lacks the first three residues SQA; also called CHO-11 AIM II; ck-beta-8-AIM2
As for B2, the binding result in assay [4] is “binds”.
